In US7947873:

What was measured:
Experiment in all cases: cell_activity
[1] = test system: CGMT9-C1 ZFP-TF (Artificial); details: control 39.9; napin promoter, transgenic canola
[2] = test system: CGMT12-C1 ZFP-TF (Artificial); details: control 39.9; napin promoter, transgenic canola
[3] = test system: AGMT8-C1 ZFP-TF (Artificial); details: control 1.00; napin promoter; effective activator in leaf, not in seed per p274
[4] = test system: CGMT4-C1 ZFP-TF (Artificial); details: control 39.9; napin promoter, transgenic canola
[5] = test system: AGMT9-C1 ZFP-TF (Artificial); details: control 1.00; napin promoter, transgenic Arabidopsis
[6] = test system: AGMT10-C1 ZFP-TF (Artificial); details: control 1.00; napin promoter; effective activator in leaf
[7] = test system: CGMT10-C1 ZFP-TF (Artificial); details: control 39.9; napin promoter, transgenic canola
[8] = test system: AGMT5-C1 ZFP-TF (Artificial); details: control 1.00; napin promoter, transgenic Arabidopsis
[9] = test system: AGMT7-C1 ZFP-TF (Artificial); details: control 1.00; napin promoter; 35S promoter 1.69; 5-fold GMT mRNA increase in leaf protoplasts (p271)
[10] = test system: CGMT6-C1 ZFP-TF (Artificial); details: control 39.9; napin promoter, transgenic canola
[11] = test system: AGMT6-C1 ZFP-TF (Artificial); details: control 1.00; napin promoter, transgenic Arabidopsis
[12] = test system: CGMT3-C1 ZFP-TF (Artificial); details: control 39.9; napin promoter, transgenic canola

“TAGTTGGAA (double strand) [CGMT9 target]” was tested. Which activity (% alpha-tocopherol in R1 seed) [1] did it give?
Its activity (% alpha-tocopherol in R1 seed) is 46.2.

Which activity (% alpha-tocopherol in R1 seed) [2] does the source give for “GAGGTTGGC (double strand) [CGMT12 target]” here?
The activity (% alpha-tocopherol in R1 seed) was 64.5.

Which activity (% alpha-tocopherol in T2 seed) [3] does the source give for “GAAGAGGGTG (double strand) [ZFP C / AGMT8 target]” here?
Its activity (% alpha-tocopherol in T2 seed) is 1.57.

Which activity (% alpha-tocopherol in R1 seed) [4] does the source give for “GAGGAAGAT (double strand) [CGMT4 target]” here?
Its activity (% alpha-tocopherol in R1 seed) is 51.9.

For “GAGGAGGATG (double strand) [ZFP D / AGMT9 target]”, which activity (% alpha-tocopherol in T2 seed) [5] is on record?
Its activity (% alpha-tocopherol in T2 seed) is 2.31.

For “GAGGAGGAGG (double strand) [ZFP E / AGMT10 target]”, which activity (% alpha-tocopherol in T2 seed) [6] is on record?
Its activity (% alpha-tocopherol in T2 seed) is 2.86.

“GTAGAGGAC (double strand) [CGMT10 target]” was tested. Which activity (% alpha-tocopherol in R1 seed) [7] did it give?
Its activity (% alpha-tocopherol in R1 seed) is 54.2.

With “GAGGAAGGGG (double strand) [ZFP A / AGMT5 target]” as the sequence, how does the activity (% alpha-tocopherol in T2 seed) [8] read?
Its activity (% alpha-tocopherol in T2 seed) is 4.45.

How did the activity (% alpha-tocopherol in T2 seed) [9] turn out when “GGGGAAAGGG (double strand) [ZFP B / AGMT7 target]” was run?
The activity (% alpha-tocopherol in T2 seed) was 5.95.

With “GAGGTTGGA (double strand) [CGMT6 target]” as the sequence, how does the activity (% alpha-tocopherol in R1 seed) [10] read?
Its activity (% alpha-tocopherol in R1 seed) is 59.6.

With “TGGGTAGTC (double strand) [AGMT6 target]” as the sequence, how does the activity (% alpha-tocopherol in T2 seed) [11] read?
Its activity (% alpha-tocopherol in T2 seed) is 1.74.

Which activity (% alpha-tocopherol in R1 seed) [12] does the source give for “GATGCTGGT (double strand) [CGMT3 target]” here?
The activity (% alpha-tocopherol in R1 seed) was 46.6.
